Data published in patent publication US20210070833A1 (GI INNOVATION, published 2021).
Values belong to the binder of their own block, whether it stands above or below them.

Key:
[1] = molecular target: T1, mouse IgE (mouse, UniProt P06336 1-421); test: cell-based or functional assay
T1 heavy (looked up): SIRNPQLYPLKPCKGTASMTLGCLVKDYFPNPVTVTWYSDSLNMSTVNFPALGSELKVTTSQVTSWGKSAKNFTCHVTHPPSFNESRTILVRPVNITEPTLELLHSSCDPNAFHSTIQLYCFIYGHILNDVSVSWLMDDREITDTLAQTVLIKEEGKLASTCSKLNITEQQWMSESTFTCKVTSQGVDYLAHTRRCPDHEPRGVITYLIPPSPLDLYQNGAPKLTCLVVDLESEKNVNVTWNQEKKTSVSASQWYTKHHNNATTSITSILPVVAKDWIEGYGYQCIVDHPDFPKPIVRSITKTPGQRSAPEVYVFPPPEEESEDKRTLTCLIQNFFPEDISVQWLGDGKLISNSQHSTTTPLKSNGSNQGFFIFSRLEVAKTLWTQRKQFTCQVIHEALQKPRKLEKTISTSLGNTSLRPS

[2] = molecular target: T2, human IgE (human, UniProt P01854-1 1-428); test: cell-based or functional assay
T2 heavy (looked up): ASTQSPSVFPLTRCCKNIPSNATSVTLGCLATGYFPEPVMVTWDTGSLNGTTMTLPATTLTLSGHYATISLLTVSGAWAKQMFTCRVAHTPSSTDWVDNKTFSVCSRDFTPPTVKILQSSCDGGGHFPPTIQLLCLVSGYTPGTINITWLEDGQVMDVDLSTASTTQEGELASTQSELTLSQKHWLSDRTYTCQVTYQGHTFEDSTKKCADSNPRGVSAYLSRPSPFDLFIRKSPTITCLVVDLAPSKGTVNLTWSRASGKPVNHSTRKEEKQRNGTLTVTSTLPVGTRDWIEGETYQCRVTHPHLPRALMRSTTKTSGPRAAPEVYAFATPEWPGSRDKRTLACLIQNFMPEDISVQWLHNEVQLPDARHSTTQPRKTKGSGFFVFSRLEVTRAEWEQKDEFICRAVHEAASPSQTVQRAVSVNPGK

[3] = molecular target: T3, FcγRI; test: BLI (Octet RED384), FcγRI immobilised on AR2G biosensor, IgETRAP 0.25-4 µM in solution
T3 construct: not in the MOLECULES list; also called IgG receptor FcγRI; Fc gamma receptor I
T3 chain: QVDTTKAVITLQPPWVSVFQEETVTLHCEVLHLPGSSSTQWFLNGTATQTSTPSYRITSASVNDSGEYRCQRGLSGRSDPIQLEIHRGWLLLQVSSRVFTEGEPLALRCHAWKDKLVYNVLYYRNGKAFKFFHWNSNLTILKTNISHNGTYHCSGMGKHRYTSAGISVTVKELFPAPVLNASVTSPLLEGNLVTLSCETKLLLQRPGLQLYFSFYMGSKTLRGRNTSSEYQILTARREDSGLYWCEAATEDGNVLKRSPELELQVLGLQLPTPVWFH
Protocol: FcγRI, FcγRIIA, FcγRIIB, FcγRIIIA, and FcγRIIIB recombinant proteins (R & D Systems Inc., 5 μg/ml) were immobilized in 300 mM acetate buffer (pH 5) on the activated AR2G biosensor. As a running buffer, PBS containing 0.1% Tween-20 and 1% bovine serum was used. All experiments were carried out at 30° C. with a sample plate shaker at a rate of 1,000 rpm.

[4] = molecular target: T4, IgE; test: SPR (ProteOn XPR36), KD against omalizumab as reference; the same paragraph ties 69-fold to FcεRIαECD-Fc2ST
T4 construct: also called immunoglobulin E
Protocol: The experiments were conducted by identifying zero base using 25 mM NaOH as a regeneration buffer, and then repeating the above steps. Thereafter, a binding curve was identified using a protein binding analyzer (ProteOn XPR36, Bio-Rad Laboratories, Inc., USA).

mast cell inhibition ratio (β-hexosaminidase release, mouse bone marrow-derived mast cells) at 0.5 ug/mL [1]: ~49.4%
mast cell inhibition ratio (β-hexosaminidase release, mouse bone marrow-derived mast cells) at 1 ug/mL [1]: ~99.4%
B1: FcεRIαECD-Fc2 (Fc fusion)
chain: VPQKPKVSLNPPWNRIFKGENVTLTCNGNNFFEVSSTKWFHNGSLSEETNSSLNIVNAKFEDSGEYKCQHQQVNESEPVYLEVFSDWLLLQASAEVVMEGQPLFLRCHGWRNWDVYKVIYYKDGEALKYWYENHNISITNATVEDSGTYYCTGKVWQLDYESEPLNITVIKAPREKYWLQRNTGRGGEEKKGSKEKEEQEERETKTPECPSHTQPLGVFLFPPKPKDTLMISRTPEVTCVVVDVSQEDPEVQFNWYVDGVEVHNAKTKPREEQFNSTYRVVSVLTVLHQDWLNGKEYKCKVSNKGLPSSIEKTISKAKGQPREPQVYTLPPSQEEMTKNQVSLTCLVKGFYPSDIAVEWESNGQPENNYKTTPPVLDSDGSFFLYSRLTVDKSRWQEGNVFSCSVMHEALHNHYTQKSLSLSLGK

IC50 of mast cell inhibition (β-hexosaminidase release, human FcεRI-expressing mouse bone marrow-derived mast cells) [2]: ~0.0112 µg/mL
inhibitory ability on mast cell activity, fold against Xolair [2]: 58 fold
binding result [3]: no binding (tested: 4 µM)
fold difference of KD against omalizumab (printed as 'higher') [4]: 22 to 69 fold
B2: FcεRIαECD-Fc2ST (Fc fusion)
chain: B1 chain
modifications: sialic acid added (co-expressed with α-2,6-sialic acid transferase)
notes: also called IgETRAP; FcεRIαECD-Fc2 + a2,6-ST
